# Legend:
# [1] = Resistance of SP1 complex to organic solvents; assay type: physicochemical
# Description: 150 ul of 1 mg/ml samples in 10 mM sodium phosphate pH 7 were lyophilized overnight and resuspended in 150 μl organic solvents for 10 minutes. Following a 30 minutes speed vac the samples were resuspended in 150 μl water and analyzed by SDS-PAGE.
# In order to further test the stability of SP1 and SP1 oligomeric complexes, wild type SP1 and the SP1 variant Cys2 SP1 were dissolved in buffer, exposed to organic solvents methanol and hexane, and analyzed by SDS-PAGE (FIG. 18).
# In order to determine the stability of the SP1 complex in organic solvents, SP1 and Cys2 SP1-variant (SEQ ID NO: 3) were dissolved in organic solvents, dried, reconstituted with aqueous solvent, and separated on SDS-PAGE.
# [2] = Heat stability (no precipitation after heat treatment); conditions: 10 min at 100° C. or 30 min at 85° C.
# [3] = Repetitive iv injections of SP1: toxicity, liver histopathology; assay type: in vivo
# Description: 35 mg/Kg SP1 or PBS control were injected iv (tail vein) to C57B1 mail mice on days 0, 9, 16, 23, 37 and 53 (6 and 5 animals in the SP1 and PBS groups, respectively). 55 days past the first injection the animals were sacrificed and their livers were subjected to histopathology analysis.
# [4] = Doxorubicin complex formation and release (ultrafiltration, HPLC, SDS PAGE fluorescence); assay type: binding; conditions: reducing conditions (DTT or GSH)
# Description: Pure wild type SP1 or Cys2 SP1 mutant (1.5 mg/ml in 20 mM Sodium Phosphate buffered, pH=6.8) were incubated overnight at room temp, with DOX 1 mg/ml in the presence of DTT (10 mM), with gentle rolling. Binding reaction was stopped by adding hydrogen peroxide (0.01%), followed by ultra filtration (using 30 kD cutoff filter) and extensive wash until follow-through become colorless. Optical density was measured at both 278 and 477 nm using nanodrop spectrophotometer. Note the dramatic effect of the reducing agent on drug binding by the Cys2 SP1, compared to the absence of effect on the wild type SP1.
# FIG. 13 is a histogram illustrating the redox-dependent release of Doxorubicin by Cys2 SP1. Doxorubicin (DOX) was complexed within Cys2 SP1 as described in FIGS. 9-12 above. Release of the drug in the presence of 0, 2 and 20 mM GSH was measured by ultrafiltration and size exclusion HPLC analysis (detection at 228 and 475 nm);
# FIG. 14 is a histogram illustrating the effect of oxidation on DOX complex formation by Cys2 SP1. Doxorubicin (DOX) was reacted with Cys2 SP1 and wild type SP1 as described in FIGS. 9-13 above. Oxidized protein indicates exposure to excess of H2O2 prior to treatment with GSH. DOX complex formation was measured by ultrafiltration and size exclusion HPLC analysis (detection at 228 and 475 nm). […] 1=the retentate; 2=the flow through; and 3=a DOX standard 20 μg/ml.
# FIG. 17 is a photograph of a fluorescent PAGE analysis illustrating effective complex formation with DOX by Cys2 and SP1 fusion proteins. Recombinant wild type (lanes 1 and 2), Cys2 (lanes 3 and 4), and SP1 fusion proteins having additional N-terminal tumor specific peptide RGD (CRGD, SEQ ID NO:151; fusion protein is SEQ ID NO: 5)(lanes 5 and 6), or RGD in reverse order (RGDC, SEQ ID NO: 152; fusion protein is SEQ ID NO: 6)(lanes 7 and 8) were reacted with DOX to form complex as described in FIGS. 9-14 above, and then separated on SDS-PAGE with (lanes 2, 4, 6 and 8) or without (lanes 1, 3, 5 and 7) denaturation by boiling in LSB.
# Ultrafiltration was used for the detection of complex formation with the water soluble ligands FA and DOX which have a distinctive absorption properties and can be determined by spectroscopic measurements. […] Several additional washing cycles remove all remaining free FA and DOX, and the ligand-SP1 complex remains in the retained fraction.
# Size exclusion chromatography is a common method for separation of molecules of different sizes under mild conditions and was employed to test FA and DOX complex formation under mild conditions. SP1 is eluted from the column after 7 min and is detected at 278 nm only, and free FA is eluted from the column (TSK G3000 SWXL, Tosohaas) after 16 min and is detected at 490 nm. The SP1-FA and SP1-DOX complexes also eluted at the same time but is detected also at 490 and 475 nm, respectively. DOX/SP1 ratio is determine from the standard curve obtained in solution.
# Reverse phase HPLC (RP-HPLC) analysis separates between free DOX, PXT, and SP1. Both compounds bind to the resin (C-18) and are eluted at different acetonitrile concentrations, and detected at both 278 and 225 nm (SP1), 225 nm (PTX) and 477 nm (DOX).
# Pyrogen free Cys2 SP1 variant (SEQ ID NO:3) in 20 mM (Na Phosphate buffer pH-6.7) final 2 mg/ml was diluted with DOX solution (Teva, Israel) 1:2 dilution final 1 mg/ml. Where indicated, GSH was added, and the solution is mixed overnight. Where indicated (oxidized), H2O2 is added to 0.1%, buffer added to 3× volume, and the solution is sonicated (3×22 sec. 1:1 pulse/pause at 3% amplitude 0.5 min. pause, using a Vibra-Cell 750 W sonicator).
substance,measurement,setting,value
"wild type: stress related SP1 protein from aspen (Populus tremula), recombinant, SEQ ID NO:1",protease resistance after hexane treatment,"[1]; hexane-treated, data not shown",resistance to protease treatment
same,resistance of oligomeric complex to organic solvents,"[1]; methanol, hexane, SDS-PAGE",Predominantly high molecular weight oligomer complex form
same,Heat stability,[2],+
same,animals without any pathological response,"[3]; 35 mg/Kg iv on days 0, 9, 16, 23, 37 and 53, up to 55 days",Four out of six
same,liver histopathology,[3]; 55 days past the first injection,appeared normal
same,animals died,"[3]; after 17 days, unknown reason",Two out of 6
same,DOX complex formation,[4],much lower extent
same,DOX complex formation,[4]; listed as wild type SP1,no complexes are formed
